Patent US20090098108A1

How the values were obtained:
[1] = molecular target: wt GLP-1 mimetibody construct (GLP-1 MMB), IgG1 scaffold (UniProt P01275)
[2] = molecular target: GLP-1 peptide (UniProt P01275)
[3] = molecular target: GLP-1 receptor on Rinm cells; test: cell-based or functional assay

Chain of wt GLP-1 mimetibody construct (GLP-1 MMB), IgG1 scaffold (P01275 whole entry, looked up): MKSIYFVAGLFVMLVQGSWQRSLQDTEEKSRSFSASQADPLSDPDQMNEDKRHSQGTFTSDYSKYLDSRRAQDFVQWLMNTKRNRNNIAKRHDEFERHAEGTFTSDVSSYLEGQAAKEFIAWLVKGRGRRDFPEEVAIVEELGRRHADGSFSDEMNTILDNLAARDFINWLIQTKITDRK
Chain of GLP-1 peptide (P01275 98-127): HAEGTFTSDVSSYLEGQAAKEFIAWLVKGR

Substance	DPP-IV cleavage assay (intact MMB by GLP-1 Active ELISA) [1]	DPP-IV cleavage assay (intact peptide by GLP-1 Active ELISA) [2]	concentration dependent cAMP activity, EC50 (Rinm cells) [3] [nM]
DPP-IV (R&D Systems)	The GLP-1 MMB was significantly more resistant to cleavage by DPP-IV, relative to the GLP-1 peptide	The GLP-1 MMB was significantly more resistant to cleavage by DPP-IV, relative to the GLP-1 peptide	–
GLP-1 peptide (from UniProt P01275 98-127)	–	–	0.4
wt GLP-1 mimetibody construct (GLP-1 MMB), IgG1 scaffold (from UniProt P01275 98-128) (Fc fusion)	–	–	11
